Columns and labels:
[1] = target: CC-chemokine receptor CCR5 on the cell surface (UniProt P51681); experiment: cell-based or functional assay
[2] = target: CC-chemokine receptor CCR5 on the cell surface (UniProt P51681)
[3] = target: CC-chemokine receptor CCR5 on the cell surface (UniProt P51681); experiment: flow cytometry on L1.2-CCR5+ cells, saturating mAb, PE anti-mouse IgG
[4] = target: CC-chemokine receptor CCR5 on the cell surface (UniProt P51681); experiment: flow cytometry on PHA/IL-2-stimulated PBMC
[5] = target: CC-chemokine receptor CCR5 on the cell surface (UniProt P51681); experiment: flow cytometry on PHA/IL-2-stimulated PBMC, mean fluorescence intensity

Sequence of UniProt P51681 (P51681 whole entry): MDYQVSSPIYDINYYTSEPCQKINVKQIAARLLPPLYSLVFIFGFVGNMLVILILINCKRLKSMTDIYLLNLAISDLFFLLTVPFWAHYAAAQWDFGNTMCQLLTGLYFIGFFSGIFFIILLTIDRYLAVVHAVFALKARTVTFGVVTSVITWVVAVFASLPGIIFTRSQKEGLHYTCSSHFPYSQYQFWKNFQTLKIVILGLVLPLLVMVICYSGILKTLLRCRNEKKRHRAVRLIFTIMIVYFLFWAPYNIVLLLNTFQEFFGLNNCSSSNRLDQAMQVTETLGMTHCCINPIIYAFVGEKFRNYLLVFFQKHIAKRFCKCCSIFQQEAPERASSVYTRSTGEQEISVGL

Substance	IC50, inhibition of JR-FL entry (luciferase reporter virus, U87MG-CD4+CCR5+ cells) [1]	IC50, inhibition of cell-cell fusion (RET assay, PM1 and HeLa-EnvJR-FL+ cells) [1]	K (equal to the IC50), inhibition of cell-cell fusion, median effect fit (RET assay) [1]	IC50 [2]	% of L1.2-CCR5+ cells stained [3]	% of PBMC stained [4]	IC50 for inhibition of RANTES-induced calcium influx in L1.2-CCR5+ cells [1]	ratio of the PA14 IC50 to the 2D7 IC50, RANTES-induced calcium influx [1]	fold difference in m.f.i. against PA9 [5]
anti-CCR5 mAb 2D7 (Pharmingen) (antibody)	0.026 µg/mL	1.6 µg/mL	0.36 µg/mL	1.38 µg/mL	> 90%	> 20%			
anti-CCR5 monoclonal antibody PA14 (ATCC Accession No. HB-12610)	0.024 µg/mL	1.7 µg/mL		1.58 µg/mL	> 90%	> 20%	50 µg/mL	8 fold	7 fold
